According to publication PMC12323374:

Tests used:
Assay in all cases: SEC
[1] = biological target: Nsp3 Ubl1 variant D80R E81R (SARS-CoV-2)
[2] = biological target: Nsp3 Ubl1 variant E26R E29R (SARS-CoV-2)
[3] = biological target: Nsp3 Ubl1 variant E49R E52R (SARS-CoV-2)
[4] = biological target: Nsp3 Ubl1 variant K33E K38E (SARS-CoV-2)
[5] = biological target: SARS-CoV-2 Nsp3 NAB domain, longer fragment, residues 1,050-1,216 (SARS-CoV-2)
[6] = biological target: SARS-CoV-2 Nsp3 ubiquitin-like 1 (Ubl1) domain, residues 1-111 (SARS-CoV-2)

Nsp3 Ubl1 variant D80R E81R (domain or fragment)
stoichiometry N [1]: 2

Nsp3 Ubl1 variant E26R E29R (domain or fragment)
stoichiometry N [2]: 2

Nsp3 Ubl1 variant E49R E52R (domain or fragment)
stoichiometry N [3]: 2

Nsp3 Ubl1 variant K33E K38E (domain or fragment)
stoichiometry N [4]: 2

SARS-CoV-2 Nsp3 NAB domain, longer fragment, residues 1,050-1,216 (domain or fragment)
stoichiometry N [5]: 2

SARS-CoV-2 Nsp3 ubiquitin-like 1 (Ubl1) domain, residues 1-111 (domain or fragment)
stoichiometry N [6]: 2
